# Source: PMC4253602 (Molecular oncology, 2014)
# Like-named read-outs stand apart in the source and are kept apart here.
# Key:
# [1] = molecular target: ARN20-FY (biotinylated peptide) (human); assay: SPR
# [2] = molecular target: ARN20-HY (biotinylated peptide) (human); assay: SPR
# [3] = molecular target: ARN20-LY (biotinylated peptide) (human); assay: SPR
# [4] = molecular target: ARN20-WY (biotinylated peptide) (human); assay: SPR
# [5] = molecular target: C320-HY (biotinylated peptide); assay: SPR
# C320-LY (Biotin-C320) = assay: SPR
# [6] = molecular target: C320-WY (biotinylated peptide); assay: SPR
# [7] = molecular target: C320-YY (biotinylated peptide); assay: SPR
# [8] = molecular target: T1, full-length wt-AR (VP16 fusion) (human, UniProt P10275 1-920); assay: two-hybrid
# T1 sequence (looked up): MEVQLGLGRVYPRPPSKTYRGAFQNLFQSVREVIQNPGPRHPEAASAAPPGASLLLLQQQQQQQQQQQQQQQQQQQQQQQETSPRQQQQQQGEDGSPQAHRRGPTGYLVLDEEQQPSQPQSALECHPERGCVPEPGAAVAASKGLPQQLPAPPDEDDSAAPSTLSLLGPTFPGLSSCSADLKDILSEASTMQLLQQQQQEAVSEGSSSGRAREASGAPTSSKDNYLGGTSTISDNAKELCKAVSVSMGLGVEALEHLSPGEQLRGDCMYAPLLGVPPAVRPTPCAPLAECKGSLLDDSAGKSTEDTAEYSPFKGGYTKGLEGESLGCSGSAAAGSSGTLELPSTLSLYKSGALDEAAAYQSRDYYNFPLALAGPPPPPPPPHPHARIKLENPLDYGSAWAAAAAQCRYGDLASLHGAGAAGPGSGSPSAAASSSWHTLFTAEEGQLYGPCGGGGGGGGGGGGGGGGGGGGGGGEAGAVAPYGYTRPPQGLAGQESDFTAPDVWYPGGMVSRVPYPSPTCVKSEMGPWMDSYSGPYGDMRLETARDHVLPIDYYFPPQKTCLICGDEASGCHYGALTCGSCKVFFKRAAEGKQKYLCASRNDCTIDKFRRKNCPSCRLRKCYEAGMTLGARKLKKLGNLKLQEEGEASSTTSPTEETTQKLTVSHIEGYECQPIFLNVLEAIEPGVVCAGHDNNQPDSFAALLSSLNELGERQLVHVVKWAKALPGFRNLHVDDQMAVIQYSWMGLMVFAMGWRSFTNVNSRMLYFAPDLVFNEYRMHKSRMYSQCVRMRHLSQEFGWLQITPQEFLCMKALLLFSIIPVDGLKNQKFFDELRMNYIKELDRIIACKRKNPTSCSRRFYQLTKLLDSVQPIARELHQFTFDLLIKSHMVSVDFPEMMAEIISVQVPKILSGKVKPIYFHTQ
# [9] = molecular target: full-length T877A-AR (VP16 fusion) (human); assay: two-hybrid
# [10] = molecular target: full-length T877A-AR (VP16 fusion) (human); assay: two-hybrid; remark: listed apart in the source
Molecule,two-hybrid reporter activity (Gal-4 = 1) [8],two-hybrid reporter activity (Gal-4 = 1) [9],two-hybrid reporter activity (Gal-4 = 1) [10],also measured
wild-type AR-DBD-LBD (domain or fragment),,,,Kd [1]: 38 nM; Kd [2]: 140000 nM; Kd [3]: 100 nM; Kd [4]: 500 nM; Kd [5]: 38000 nM; Kd (C320-LY (Biotin-C320)): 30 nM; Kd [6]: 140 nM; Kd [7]: 3800 nM
NPRTPTTFERYY [B414 (Gal-4 fusion)],18,,,
EASNSSFARLFH [B426 (Gal-4 fusion)],13500,1510,9550,
HASPFEMHYLLG [HF-26 (Gal-4 fusion)],8900,8900,8400,
SPFEEHYLSTQS [B34 (Gal-4 fusion)],42,,37,
SSFADLWRNEAT [C314 (Gal-4 fusion)],1140,121,859,
HTSMFESFFRKE [HF-15 (Gal-4 fusion)],11500,14500,13900,
SFYDFYNGASTP [C41 (Gal-4 fusion)],23,,,
SKFSQLYSYEPP [B49 (Gal-4 fusion)],1790,318,1030,
TEPPAAFRQLFF [C317 (Gal-4 fusion)],6600,4380,5230,
HPTHSSRLWELLMEATPTM [D30 (Gal-4 fusion)],19900,8800,18100,
HKASPFNYYYLN [B311 (Gal-4 fusion)],46,,,
PAPKFKEFFYAE [A43 (Gal-4 fusion)],8840,8300,7350,
DPPTSKFSTFYQ [A48 (Gal-4 fusion)],32,,,
NTPLFQTFYNQR [B45 (Gal-4 fusion)],18000,17200,12600,
SHSSFYQYYLDN [A310 (Gal-4 fusion)],4770,4460,3590,
NTTDTLFSQHYR [B32 (Gal-4 fusion)],41,,,
HNTKFSTFYNMD [B37 (Gal-4 fusion)],9160,8710,6240,
HPARTSFETHYM [B411 (Gal-4 fusion)],13,16,,
DSQYSSFSRYYK [A47 (Gal-4 fusion)],21,,,
ANSSFRDWYTSS [B46 (Gal-4 fusion)],792,1260,376,
NTNAFSRLFYPS [#3-18 (Gal-4 fusion)],12500,,11000,
SPTPHFTRLFHY [B310 (Gal-4 fusion)],17800,6720,12100,
SSGGFERFYIAQ [A41 (Gal-4 fusion)],4310,3510,3060,
KTRYIFDLFYKRKAY [BUD31 peptide (Gal-4 fusion)],8940,4870,12000,
VLPGSTFERFYR [A49 (Gal-4 fusion)],25,,26,
RGAFQNLFQSV [ARN20 (Gal-4 fusion)],1310,1420,1580,
SPTRLFDHLYMT [B423 (Gal-4 fusion)],1220,168,401,
STFESLYNNMTA [C33 (Gal-4 fusion)],1330,399,1020,
SDSAFSRLYTRS [C320 (Gal-4 fusion)],13400,4650,12700,
